Reference: paper doi:10.1101/2020.12.02.408153 (bioRxiv, 2020)

Molecular target: SARS-CoV-2 open reading frame (ORF) 8 (SARS-CoV-2, UniProt P0DTC8 16-121)
Assay: SPR

Sequence of SARS-CoV-2 open reading frame (ORF) 8 (P0DTC8 16-121): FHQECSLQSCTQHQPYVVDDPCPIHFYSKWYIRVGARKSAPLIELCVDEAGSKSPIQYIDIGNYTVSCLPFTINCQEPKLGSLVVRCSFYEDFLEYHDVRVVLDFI

**Q.** LLGDFFRKSKEKIGKEFKRIVQRIKDFLRNLVPRTES [LL-37] was tested. Which Kd did it give?
**A.** The Kd was 290 nM.
